Where a chain is given by its changes, count along the chain named. Entries after “also recorded” stand apart in the source; their conditions may differ.
Tests used:
db/db mice [1] = assay: Serum nesfatin-1 / pladin in db/db after i.v. plasmin inhibitor (HPLC); assay type: in vivo, mouse; details: 30 minutes after i.v. injection
Method: Hypothalamus in acetic acid supplemented with protease inhibitor cocktail tablets (Roche, Indianapolis, Ind.) was homogenized, sonicated and heated at 95° C. for 15 minutes. The samples were then centrifuged at 13,200 rpm at 4° C. for 30 minutes. The supernatants were finally collected as their protein contents were determined by the Bradford assay (Thermo-Fisher Sci. Rockford, Ill.). Mouse serum was freshly prepared by drawing blood through ophthalmectomy. About […] hypothalamic total proteins or 25 μL serum were analyzed with Waters Delta 600E/2487/717 HPLC system using an analytical C18 reverse phase column (4.6×250 mm/5 μm, Hambon, Zhangjiagang, CN). Nesfatin-1 was eluted with a linear gradient from 20%-40% solvent B (solvent A: water with 0.1% trifluoroacetic acid, solvent B: acetonitrile with 0.1% trifluoroacetic acid) for 20 minutes at the flow rate of 1 ml/minute. The purified nesfatin-1 was used as the standard to determine the retention time and plot the standard curve. The fraction collected at the retention time was sent for the mass spectrometry analysis.
Mouse serum was freshly prepared by drawing blood through ophthalmectomy. The sera of plg^−/−lepr^−/− and db/db mice were directly analyzed with Waters Delta 600E/2487/717 HPLC System using a C18 reverse phase column (4.6×250 mm, 5 μm, Hambon, Zhangjiagang, CN) and eluted with a linear gradient from 20%-40% acetonitrile in 0.1% TFA for 20 minutes at the flow rate of 1 ml/minute (Enriori et al., 2007). Compared with db/db mice, the divergent fractions eluted in plg^−/−lepr^−/− mice were collected for the determination of molecular weight using the Applied Biosystems 4800 Proteomics Analyzer (Applied Biosystems). The MS spectra were acquired in the liner mode at a range of peptide mass from 3,000 to 20,000 Dalton.

db/db mice [2] = assay: Food intake and body weight of db/db mice; assay type: in vivo, mouse; details: i.v. plasmin inhibitor to db/db (AMCA 15 mg/day once daily for three days)
db/db mice [3] = assay: Blood glucose of db/db mice after injection of test substance; assay type: in vivo, mouse; details: for anti-hyperglycemic effect (blood glucose): peripheral/i.v. injection, db/db, dose not stated; for active duration of anti-hyperglycemic effect in vivo: i.v. injection, hyperglycemic db/db mice
db/db mice [4] = assay: as above; assay type: in vivo, mouse; details: for effect of pre-treatment on the anti-diabetic effect of nesfatin-1: GW9662 0.45 μg/g i.v. or Compound C 20 mg/kg i.p. before 100 ug Nesfatin-1 i.v., blood glucose in 6 hours; for effect of pre-injection on the anti-hyperglycemic effect of rPladin: GW9662 0.45 ug/g i.v., rosiglitazone or Compound C 20 ug/g i.p., then 10 nmol rPladin i.v., 3 hours
Method: GW9662, a PPAR-gamma irreversible inhibitor, was i.v. injected into the tail vein of db/db mice at the dose of 0.45 μg per gram body weight. After 30 minutes, 100 ug Nesfatin-1 was injected into the tail vein of db/db mice. Blood glucose was measured in 6 hours.
Compound C, a 5′-AMP-activated protein kinase (AMPK) specific inhibitor, was intraperitoneally injected to db/db mice at the dose of 20 mg per kg body weight. Subsequently, 100 ug Nesfatin-1 was injected into the tail vein of db/db mice. Blood glucose was measured in 6 hours.
Without anesthesia, mice were placed into a restricting tube. The testing substance such as nesfatin-1 or rPladin was i.v. injected via mice tail vein with a total volume of 150 μL. After that mice were returned to the cages with food and water available freely. In the i.p. injection experiment, mice without anesthesia were injected with the testing substances directly into the peritoneal with a total volume of 200 μL.
db/db mice of 16 to 18 weeks old were i.v. injected with 0.45 ug/g of GW9662 (Sigma, St. Louis, Mo.), i.p. injected with 20 ug/g rosiglitazone (Sigma, St. Louis, Mo.) or 20 ug/g Compound C (Sigma, St. Louis, Mo.), and then randomly assigned to receive the i.v. injection of 10 nmol rPladin or the same volume of saline as the control. Blood glucose was measured at 3 hours after the injection using the glucose meter (Roche, Indianapolis, Ind.).

plasmin = plasmin (Homo sapiens, UniProt P00747); assay: Incubation with plasmin in vitro (proteolysis); assay type: biochemical; details: incubated with plasmin in vitro
Sequence of plasmin (P00747 581-810 limits assumed, species assumed): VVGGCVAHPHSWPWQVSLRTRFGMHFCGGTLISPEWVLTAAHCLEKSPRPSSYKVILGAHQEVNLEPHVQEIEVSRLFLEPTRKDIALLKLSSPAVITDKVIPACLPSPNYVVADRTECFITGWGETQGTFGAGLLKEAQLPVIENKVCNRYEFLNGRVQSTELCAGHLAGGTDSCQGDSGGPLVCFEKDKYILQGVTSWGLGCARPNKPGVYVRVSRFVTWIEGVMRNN
Sequence of plasmin (P00747 97-580 partner limits assumed, species assumed): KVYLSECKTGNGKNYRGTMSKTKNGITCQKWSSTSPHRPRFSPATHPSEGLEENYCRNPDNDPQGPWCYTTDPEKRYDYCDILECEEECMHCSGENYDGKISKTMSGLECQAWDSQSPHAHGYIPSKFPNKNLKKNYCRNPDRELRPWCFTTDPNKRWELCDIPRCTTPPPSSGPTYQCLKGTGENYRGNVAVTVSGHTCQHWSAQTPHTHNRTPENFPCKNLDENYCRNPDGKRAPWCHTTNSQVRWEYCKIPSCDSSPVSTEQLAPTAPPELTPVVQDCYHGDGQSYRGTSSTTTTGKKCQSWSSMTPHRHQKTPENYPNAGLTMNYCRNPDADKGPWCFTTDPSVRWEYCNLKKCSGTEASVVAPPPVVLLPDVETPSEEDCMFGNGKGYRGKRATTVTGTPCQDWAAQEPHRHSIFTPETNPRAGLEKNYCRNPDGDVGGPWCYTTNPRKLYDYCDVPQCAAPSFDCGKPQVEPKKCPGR
Excerpt: The recovery of hypothalamic nesfatin-1 in plg^−/−lepr^−/− was consistent to its normalization in food intake and body weight. Fasted mice always had less nesfatin-1 in hypothalamus than their freely feeding counterparties (FIG. 2b). Furthermore, plasminogen deficiency provided a unique approach to study the chronic effect of elevated nesfatin-1 in hyperphagic obese animals, which was impossible for the i.c.v. or i.p. administration due to the short half-time of nesfatin-1. Consequently, agrp and npy were found reduced in plg^−/−lepr^−/−, while pomc was elevated compared with plg^+/+lepr^−/− (FIG. 3), contradicting to the previous report that i.c.v. nesfatin-1 didn't alter the expression of pomc, npy and agrp. Consistent to the present finding, the same group reported the up-regulation of pomc by i.p. nesfatin-1 in NTS recently.
Carefully examining the amino acid sequence of pladin (SEQ ID NO: 23), it has several putative cleavage sites by plasmin (FIG. 11A).

aprotinin
circulating (serum) nesfatin-1 (db/db mice [1]): increased | body weight (db/db mice [2]): reduction | food intake (db/db mice [2]): reduction

ANAEDIKSGKLSQELDFVSH (amino acids by MALDI-TOF/TOF with Trypsic Peptides) [SEQ ID NO:24, synthetic 20 amino acids peptide, a portion of NUCB1]
anti-hyperglycemic effect (blood glucose) (db/db mice [3]): anti-hyperglycemic

ADIEEIRSGR LSQELDLVSH (ADIEEIRSGRLSQELDLVSH; A synthetic peptide which was the C-terminal portion of pladin) [SEQ ID NO:22, synthetic 20 amino acids peptide, C-terminal portion of pladin]
anti-hyperglycemic activity, fold less than rPladin (db/db mice [3]; i.v., db/db mice): more than 3 fold | anti-hyperglycemic effect (blood glucose) (db/db mice [3]): anti-hyperglycemic

c1cc(-c2cnn3cc(-c4ccc(OCCN5CCCCC5)cc4)cnc23)ccn1 [Compound C]
effect of pre-treatment on the anti-diabetic effect of nesfatin-1 (db/db mice [4]): fully inhibited | effect of pre-injection on the anti-hyperglycemic effect of rPladin (db/db mice [4]): abolished; also recorded: prevented

O=C(Nc1ccccc1)c1cc([N+](=O)[O-])ccc1Cl [GW9662]
effect of pre-treatment on the anti-diabetic effect of nesfatin-1 (db/db mice [4]): fully inhibited | effect of pre-injection on the anti-hyperglycemic effect of rPladin (db/db mice [4]): abolished; also recorded: prevented

B1: A4: pladin mutant A4 (Lys28→Ala) (protein)
peptide: TKVHNTEPVENARIEPPDTGLYYDEYLAQVIEVLETDPHFREKLQKADIEEIRSGRLSQELDLVSHKVR
active duration of anti-hyperglycemic effect in vivo (db/db mice [3]): 18 h | proteolysis by plasmin (plasmin): resistant to plasmin proteolysis

B2: A5: pladin mutant A5 (Lys13→Ala as printed; Arg13 in sequence) (protein)
peptide: B1 peptide with R13A, A28K
active duration of anti-hyperglycemic effect in vivo (db/db mice [3]): 12 h | proteolysis by plasmin (plasmin): resistant to plasmin proteolysis

B3: acetylated rPladin: rPladin acetylated with N-acetylimidazole; three Tyr and three Lys residues modified (protein)
peptide: B1 peptide with A28K
modifications: also: three Tyr and three Lys acetylated with N-acetylimidazole
notes: rPladin acetylated with N-acetylimidazole; three Tyr and three Lys residues modified
active duration of anti-hyperglycemic effect in vivo (db/db mice [3]): 12 h | anti-hyperglycemic activity compared with reference peptide (db/db mice [3]; i.v., db/db mice): unchanged | proteolysis by plasmin (plasmin): resistant to the proteolysis by plasmin

B4: TKVHNTEPVENARIEPPDTGLYYDEYAKAAAAALETDPHFREKLQKADIEEIRSGRLSQELDLVSHKVR (protein)
chain: B1 peptide with L27A, A28K, Q29A, V30A, I31A, E32A, V33A
modifications: amino acid sequence of Mutant A90
active duration of anti-hyperglycemic effect in vivo (db/db mice [3]): > 24 h

B5: TKVHNTEPVENARIEPPDTGLYYDEYSAAAALETDPHFREKLQKADIEEIRSGRLSQELDLVSHKVR (protein)
chain: TKVHNTEPVENARIEPPDTGLYYDEYSAAAALETDPHFREKLQKADIEEIRSGRLSQELDLVSHKVR
modifications: amino acid sequence of Mutant A91
active duration of anti-hyperglycemic effect in vivo (db/db mice [3]): > 24 h

B6: TKVHNTEPVENARIEPPDTGLYYDEYAALETDPHFREKLQKADIEEIRSGRLSQELDLVSHKVR (protein)
chain: TKVHNTEPVENARIEPPDTGLYYDEYAALETDPHFREKLQKADIEEIRSGRLSQELDLVSHKVR
modifications: amino acid sequence of Mutant A92
active duration of anti-hyperglycemic effect in vivo (db/db mice [3]): > 12 h

B7: VPVDRAAPPQEDSQATETPDTGLYYHRYLQEVINVLETDGHFREKLQAANAEDIKSGKLSQELDFVSHNVRTKLDELK (protein)
chain: VPVDRAAPPQEDSQATETPDTGLYYHRYLQEVINVLETDGHFREKLQAANAEDIKSGKLSQELDFVSHNVRTKLDELK
modifications: amino acids recombinant peptide of NUCB1
notes: 78 amino acids recombinant peptide, N-terminal portion of NUCB1
molar anti-hyperglycemic activity, fold higher than rPladin or nesfatin-1 (db/db mice [3]; i.v., db/db mice, within 3 hours): at least 2 fold | active duration, fold less than rPladin or nesfatin-1 (db/db mice [3]; in vivo): at least 2 fold | anti-hyperglycemic effect (blood glucose) (db/db mice [3]): anti-hyperglycemic

Source: patent publication US8541367B2, “Plasma anti-diabetic NUCB2 peptide (pladin) and uses thereof” (Landing Biotech, Inc., priority 2009, dated 2013)
